Results published in patent publication US11266715B2, “C3A receptor agonists for use against ischemic brain injury, stroke, traumatic brain injury, spinal cord injury and neurodegenerative disorders” (priority 2016, dated 2022).

Key:
[1] = test system: mice subjected to neonatal HI injury; assay: Open field after neonatal HI injury; assay type: in vivo, mouse; conditions: P50, 3 days treatment
Method: In the short-term study (3 days of intranasal treatment), 3 groups of WT mice were used; animals subjected to neonatal HI injury and treated with either C3a (HI-C3a, n=18) or PBS (HI-PBS, n=18) and sham-operated animals treated with PBS (SHAM-PBS, n=19). These mice were tested in an open field and object recognition test (ORT) at P50-P54 and brains were collected at P55 (FIG. 8A).
Purified human C3a (Complement Technology Inc., Tyler, Tex., USA) was diluted in sterile phosphate buffered saline (PBS) to a concentration of 200 nM, and a total of 8 μl i.e. […] (4 μl/nostril; corresponding to ca. 2.56 μg/kg body weight) of peptide solution or PBS was given intranasally to awake and hand-restrained mice held in a supine position. Solutions were administered through a pipette tip, drop-wise in 2 μl-portions divided by 1 min intervals to allow for absorption. […] C3a or PBS was given every 24 hours for three (short-term study) or seven (long-term study) days starting 1 h after HI induction, i.e. between P9 and P11 or P9 and P15, respectively. Mice in each litter were randomly assigned to C3a or PBS treatment. Sham animals received PBS. […]
The activity of each animal on the first day of habituation to the object recognition test apparatus was recorded as an open field task to study locomotor and exploratory activities (Leke et al., 2012). […]

VGLUT1+ puncta = assay: VGLUT1 immunostaining of dorsal hippocampus after neonatal HI; assay type: in vivo, mouse; conditions: between groups or hemispheres
Method: Neuronal nuclei (NeuN), growth associated protein 43 (GAP-43), synapsin I (SYN), vesicular glutamate transporter 1 (VGLUT1), Glial Fibrillary Acidic Protein (GFAP) and ionized calcium-binding adapter molecule 1 (Iba-1) were visualized in the cornu ammonis (CA) and dentate gyrus (DG) of the dorsal hippocampus by immunohistochemistry. Briefly, following heat-induced antigen retrieval with 0.01 M citrate buffer (pH 6, 0.05% Tween 20) for 3×5 min, sections were washed 3×5 min with PBS-T (0.05% Tween 20), non-specific protein binding was reduced by incubation with blocking buffer [4% normal donkey serum (NeuN and Iba-1), 1% bovine serum albumin (GAP-43 and SYN), 3% normal goat serum (VGLUT1), 2% bovine serum albumin (GFAP) in PBS-T] for 1 h at room temperature (RT). […]
NeuN positive cells, GFAP positive relative area, as well as GAP-43, SYN, and VGLUT1 positive puncta were counted by using MetaMorph software (ver. 7.8.6, Molecular Devices, CA, USA) on confocal images obtained with a 20× (NeuN and GFAP) or 63× (GAP-43, SYN, and VGLUT1) objective (Carl Zeiss LSM 700 Laser Scanning Microscope, Jena, Germany). Iba-1 positive cell somata were counted on bright field images obtained with a 20× objective (Nikon Eclipse 80i). […]

C3a: Purified human C3a peptide (Complement Technologies), C3a receptor agonist, amino acid sequence SEQ ID NO: 1
anxiety-like behavior (centre distance and time, rearing, grooming) [1]: anxiety-like behavior was not induced | general exploratory and locomotor activities (speed, activity, locomotion time, distance) [1]: did not affect general exploratory and locomotor activities | density or average area of VGLUT1+ puncta in CA1 or dentate gyrus (VGLUT1+ puncta): did not find any differences
